Assay results reported in patent US20050074865.

B1: Cathepsin G (enzyme, UniProt P08311 21-244, looked up, species assumed)
Cathepsin G: IIGGRESRPHSRPYMAYLQIQSPAGQSRCGGFLVREDFVLTAAHCWGSNINVTLGAHNIQRRENTQQHITARRAIRHPQYNQRTIQNDIMLLQLSRRVRRNRNVNPVALPRAQEGLRPGTLCTVAGWGRVSMRRGTDTLREVQLRVQRDRQCLRIFGSYDPRRQICVGDRRERKAAFKGDSGGPLLCNNVAHGIVSYGKSSGVPPEVFTRVSSFLPWIRTTMRS
B2: ADAMTS4 (enzyme, UniProt O75173 213-837, looked up, species assumed)
A disintegrin and metalloproteinase with thrombospondin motifs 4: FASLSRFVETLVVADDKMAAFHGAGLKRYLLTVMAAAAKAFKHPSIRNPVSLVVTRLVILGSGEEGPQVGPSAAQTLRSFCAWQRGLNTPEDSDPDHFDTAILFTRQDLCGVSTCDTLGMADVGTVCDPARSCAIVEDDGLQSAFTAAHELGHVFNMLHDNSKPCISLNGPLSTSRHVMAPVMAHVDPEEPWSPCSARFITDFLDNGYGHCLLDKPEAPLHLPVTFPGKDYDADRQCQLTFGPDSRHCPQLPPPCAALWCSGHLNGHAMCQTKHSPWADGTPCGPAQACMGGRCLHMDQLQDFNIPQAGGWGPWGPWGDCSRTCGGGVQFSSRDCTRPVPRNGGKYCEGRRTRFRSCNTEDCPTGSALTFREEQCAAYNHRTDLFKSFPGPMDWVPRYTGVAPQDQCKLTCQAQALGYYYVLEPRVVDGTPCSPDSSSVCVQGRCIHAGCDRIIGSKKKFDKCMVCGGDGSGCSKQSGSFRKFRYGYNNVVTIPAGATHILVRQQGNPGHRSIYLALKLPDGSYALNGEYTLMPSPTDVVLPGAVSLRYSGATAASETLSGHGPLAQPLTLQVLVAGNPQDTRLRYSFFVPRPTPSTPRPTPQDWLHRRAQILEILRRRPWAGRK
B3: mesotrypsin, activated with enterokinase (C-terminal myc and His6 tags, expressed from pDEST40) (protein)
chain: IVGGYTCEENSLPYQVSLNSGSHFCGGSLISEQWVVSAAHCYKTRIQVRLGEHNIKVLEGNEQFINAAKIIRHPKYNRDTLDNDIMLIKLSSPAVINARVSTISLPTAPPAAGTECLISGWGNTLSFGADYPDELKCLDAPVLTQAECKASYPGKITNSMFCVGFLEGGKDSCQRDSGGPVVCNGQLQGVVSWGHGCAWKNRPGVYTKVYNYVDWIKDTIAANSEQKLISEEDLNSAVDHHHHHH

Legend:
[1] = target: recombinant human TNFα (RDI) (UniProt P01375)
[2] = target: recombinant human TNFα (RDI), P01375
Sequence of recombinant human TNFα (RDI), P01375 (P01375 77-233): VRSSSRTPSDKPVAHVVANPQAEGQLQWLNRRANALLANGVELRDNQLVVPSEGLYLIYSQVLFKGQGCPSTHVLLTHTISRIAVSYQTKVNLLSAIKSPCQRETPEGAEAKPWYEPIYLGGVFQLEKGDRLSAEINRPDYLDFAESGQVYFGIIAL

Sequence of recombinant human TNFα (RDI) (P01375 77-233): as above

Protein	inactivation of TNFα bioactivity, L929 cytotoxicity bioassay after overnight digestion [1]	cleavage of TNF, Western blot with anti-TNF antibody after overnight incubation [2]	inactivation of TNF bioactivity, L929 bioassay after overnight digestion, 100 nM mesotrypsin and 100 nM TNF [2]	inactivation of TNF bioactivity, L929 bioassay after overnight digestion, mesotrypsin at 86, 43 and 22 nM with 100 nM TNF [2]
B1	Cathepsin G (column: Proteases that did not inactivate TNF)			
B2	ADAMTS4 (column: Proteases that did not inactivate TNF)			
B3		but not by enzyme (mesotrypsin) to an appreciatable degree	at equimolar ratios, mesotrypsin achieved only marginal inactivation of TNF in solution	at these concentrations, the enzyme mesotrypsin, is either inactive or marginally active towards TNF
